# Data published in US20090297524A1 (DOMANTIS, published 2009).
# T1: Recombinant human CD40L (human, UniProt P29965 108-261, limits assumed)
# T1 construct: also called CD40 ligand
# T1 sequence (looked up): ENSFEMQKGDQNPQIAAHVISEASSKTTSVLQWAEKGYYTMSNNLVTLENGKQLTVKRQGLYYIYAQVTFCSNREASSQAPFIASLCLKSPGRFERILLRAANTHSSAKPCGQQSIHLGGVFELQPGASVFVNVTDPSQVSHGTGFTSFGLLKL
# Molecular target: T1, Recombinant human CD40L
# Experiment: CD40L/CD40-Fc receptor binding assay;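 further: plate assay with coated human CD40-Fc, bound ligand detected via HRP anti-biotin antibody and TMB, OD at 450 nm, lower signal indicates stronger inhibition by dAb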
# Experimental: A 96 well Nunc Maxisorp assay plate was coated overnight at 4° C. with 100 μl per well of recombinant human CD40/Fc (R&D Systems) at 0.5 μg/ml in carbonate buffer. The plate was washed 3 times with 300 μl of 0.05% Tween/PBS and 3 times with 300 μl of PBS using a Tecan plate washer. The wells were blocked using 200 μl of PBS containing 2% (w/v) BSA and incubated for a minimum of 1 h at room temperature. The wells were washed as above, then 50 μl of purified dAb protein (or unpurified supernatant containing dAb from a micro-culture expression) was added to each well.
# The plate was washed as described above, then 100 μl HRP conjugated anti-biotin antibody (1:5000 dilution in diluent) added to each well and the plate incubated for 1 hr at room temperature. The plate was washed again as described above using a Tecan plate washer and the assay developed using 100 μl of SureBlue 1-Component TMB MicroWell Peroxidase solution (the plate was left at room temperature for up to 20 min). The reaction was stopped by the addition of 100 μl M hydrochloric acid. The OD₄₅₀ₙₘ of the plate was assayed within 30 minutes of acid addition. The OD₄₅₀ₙₘ is proportional to the amount of bound streptavidin-HRP conjugate, therefore the greater the degree of dAb inhibition the lower the OD₄₅₀ₙₘ of the resulting signal.
row,binding result,Binder
1,binds,"DOM.92 (other, VH dAb) VH: EVQLLESGGGLVQPGGSLRLSCAASGFTFVDYPMGWVRQAPGKGLEWVSTISTGGFSTYYADSVKGRFTISRDNSKNTLYLQMNSLRAEDTAVYYCAKARYYYLSQIKNFDYWGQGTLVTVSS"
2,binds,"DOM.164 (other, Vk dAb) VL: DIQMTQSPSSLSASVGDRVTITCRASQSIDTDLEWYQQKPGKAPKLLIYDGSWLQSGVPSRFSGSGSGTDFTLTISSLQPEDFATYYCQQYRWIPVTFGQGTKVEIKR"
3,binds,"DOM.175 (other, Vk dAb) VL: DIQMTQSPSSLSASVGDRVTITCRASQPISGGLRWYQQKPGKAPKLLIYSTSMLQSGVPSRFSGSGSGTDFTLTISSLQPEDFATYYCQQLYSAPYTFGQGTKVEIKR"
4,binds,"DOM.93 (other, VH dAb) VH: EVQLLESGGGLVQPGGSLRLSCAASGFTFDIYGMTWVRQAPGKGLEWVSSISPLGLVTYYADPVKGRFTISRDNSKNTLYLQMNSLRAEDTAVYYCAKLKEHGDVPFDYWGQGTLVTVSS"
5,binds,"DOM.90 (other, Vk dAb) VL: DIQMTQSPSSLSASVGDRVTITCRASQSISDALFWYQQKPGKAPRLLIYYGSVLQSGVPSRFSGSGSGTDFTLTISSLQPEDFATYYCQQRFQEPVTFGQGTKVEIKR"
6,binds,"DOM.94 (other, VH dAb) VH: EVQLLESGGGLVQPGGSLRLSCAASGFTFELYPMSWVRQAPGKGLEWVSTISPTGLLTYYADSVKGRFTISRDNSKNTLYLQMNSLRAEDTAVYYCAKFKRSGKTDDTNFDYWGQGTLVTVSS"
7,binds,"DOM-11 (other, VH dAb) VH: EVQLLESGGGLVQPGGSLRLSCAASGFTFGDYEMSWVRQAPGKGLEWVSGIDGEGSDTYYADSVKGRFTISRDNSKNTLYLQMNSLRAEDTAVYYCAKPGRSFDYWGQGTLVTVSS"
8,binds,"DOM-29 (other, VH dAb) VH: EVQLLESGGGLVQPGGSLRLSCAASGFTFGRYQMAWVRQAPGKGLEWVSSISSDGGGTYYADSVKGRFTISRDNSKNTLYLQMNSLRAEDTAVYYCAKPGRAFDYWGQGTLVTVSS"
9,binds,"DOM-41 (other, VH dAb) VH: EVQLLESGGGLVQPGGSLRLSCAASGFTFFEYEMTWVRQAPGKGLEWVSSIANDGSTTYYADSVKGRFTISRDNSKNTLYLQMNSLRAEDTAVYYCAKPDRQFDYWGQGTLVTVSS"
10,binds,"DOM-28 (other, VH dAb) VH: EVQLLESGGGLVQPGGSLRLSCAASGFTFGHYDMAWVRQAPGKGLEWVSTISDNGNGTYYADSVKGRFTISRDNSKNTLYLQMNSLRAEDTAVYYCAKPGRDFDYWGQGTLVTVSS"
11,binds,"DOM-78 (other, VH dAb) VH: EVQLLESGGGLVQPGGSLRLSCAASGFTFERYQMAWVRQAPGKGLEWVSTISSDGGGTYYADSVKGRFTISRDNSKNTLYLQMNSLRAEDTAVYYCAKPGHRFDYWGQGTLVTVSS"
12,binds,"DOM-67 (other, VH dAb) VH: EVQLLESGGGLVQPGGSLRLSCAASGFTFSDYEMSWVRQAPGKGLEWVSTIDSDGSFTYYADSVKGRFTISRDNSKNTLYLQMNSLRAEDTAVYYCAKPGVKFDYWGQGTLVTVSS"
13,binds,"DOM-58 (other, VH dAb) VH: EVQLLESGGGLVQPGGSLRLSCAASGFTFEVYTMAWVRQAPGKGLEWVSTIDESGRDTYYADSVKGRFTISRDNSKNTLYLQMNSLRAEDTAVYYCAKPGVWFDYWGQGTLVTVSS"
14,binds,"DOM-19 (other, VH dAb) VH: EVQLLESGGGLVQPGGSLRLSCAASGFPFPQYQMAWVRQAPGKGLEWVSMITSDGLDTYYADSVKGRFTISRDNSKNTLYLQMNSLRAEDTAVYYCAKPEPLFDYWGQGTLVTVSS"
15,binds,"DOM-83 (other, VH dAb) VH: EVQLLESGGGLVQPGGSLRLSCAASGFTFALYQMAWVRQAPGKGLEWVSSIDSSGSDTYYADSVKGRFTISRDNSKNTLYLQMNSLRAEDTAVYYCAKPERDFDYWGQGTLVTVSS"
16,binds,"DOM-43 (other, VH dAb) VH: EVQLLESGGGLVQPGGSLRLSCAASGFTFASYEMAWVRQAPGKGLEWVSSIGSDGGPTYYADSVKGRFTISRDNSKNTLYLQMNSLRAEDSAVYYCAKPDRAFDYWGQGTLVTVSS"
17,binds,"DOM-74 (other, VH dAb) VH: EVQLLESGGGLVQPGGSLRLSCAASGFTFSDYPMTWVRQAPGKGLEWVSTILSPGTETYYADSVKGRFTISRDNSKNTLYLQMNSLRAEDTAVYYCAKAEKDFDYWGQGTLVTVSS"

row,binding result,Binder
1,binds,"DOM-66 (other, VH dAb) VH: EVQLLESGGGLVQPGGSLRLSCAASGFTFSDYEMLWVRQAPGKGLEWVSTITSEGHSTYYADSVKGRFTISRDNSKNTLYLQMNSLRAEDTAVYYCAKPGTSFDYWGQGTLVTVSS"
2,binds,"DOM-80 (other, VH dAb) VH: EVQLLESGGGLVQPGGSLRLSCAASGFTFGRYQMAWVRQAPGKGLEWVSSISSDGGGTYYADSVKGRFTISRDNSKNTLYLQMNSLRAEDTAVYYCAKPSRRFDYWGQGTLVTVSS"
3,binds,"DOM-23 (other, VH dAb) VH: EVQLLESGGGLVQPGGSLRLSCAASGFTFGLYEMTWVRQAPGKGLEWVSSITGDGISTYYADSVKGRFTISRDNSRNTLYLQMNSLRAEDTAVYYCAKAGRKFDYWGQGTLVTVSS"
4,binds,"DOM-14 (other, VH dAb) VH: EVQLLESGGGLVQPGGSLRLSCAASGFTFWSYDMTWVRQAPGKGLEWVSSIMASGDDTYYADSVKGRFTISRDNSKNTLYLQMNSLRAEDTAVYYCAKWDRDFDYWGQGTLVTVSS"
5,binds,"DOM-73 (other, VH dAb) VH: EVQLLESGGGLVQPGGSLRLSCAASGFTFSKYDMSWVRQAPGKGLEWVSTILEDGLTTYYADSVKGRFTISRDNSKNTLYLQMNSLRAEDTAVYYCAKPGRLFDYWGQGTLVTVSS"
6,binds,"DOM-25 (other, VH dAb) VH: EVQLLESGGGLVQPGGSLRLSCAASGFTFDNYEMTWVRQAPGKGLEWVSTITSQGTSTYYADSVKGRFTISRDNSKNTLYLQMNSLRAEDTAVYYCAKPDRSFDYWGQGTLVTVSS"
7,binds,"DOM-26 (other, VH dAb) VH: EVQLLESGGGLVQPGGSLRLSCAASGFTFRSYEMTWVRQAPGKGLEWVSSITSDGGTTYYADSVKGRFTISRDNSKNTLYLQMNSLRAEDTAVYYCAKPDKTFDYWGQGTLVTVSS"
8,binds,"DOM-68 (other, VH dAb) VH: EVQLLESGGGLVQPGGSLRLSCAASGFTFKDYEMTWVRQAPGKGLEWVSSISSTGQSTYYADSVKGRFTISRDNSKNTLYLQMNSLRAEDTAVYYCAKPGNKFDYWGQGTLVTVSS"
9,binds,"DOM-42 (other, VH dAb) VH: EVQLLESGGGLVQPGGSLRLSCAASGFTFGPYEMTWVRQAPGKGLEWVSSIVGDGLDTYYADSVKGRFTISRDNSKNTLYLQMNSLRAEDTAVYYCAKPDRVFDYWGQGTLVTVSS"
10,binds,"DOM-57 (other, VH dAb) VH: EVQLLESGGGLVQPGGSLRLSCAASGFTFSEYDMYWVRQAPGKGLEWVSWIDTDGGDTYYADSVKGRFTISRDNSKNTLYLQMNSLRAEDTAVYYCAKPGLKFDYWGQGTLVTVSS"
11,binds,"DOM-65 (other, VH dAb) VH: EVQLLESGGGLVQPGGSLRLSCAASGFTFNEYEMTWVRQAPGKGLEWVSTITSEGSGTYYADSVKGRFTISRDNSKNTLYLQMNSLRAEDTAVYYCAKPNGKFDYWGQGTLVTVSS"
12,binds,"DOM-22 (other, VH dAb) VH: EVQLLESGGGLVQPGGSLRLSCAASGFTFHNYEMSWVRQAPGKGLEWVSSISSGGSSTYYADSVKGRFTISRDNSKNTLYLQMNSLRAEDTAVYYCAKPGVKFDYWGQGTLVTVSS"
13,binds,"DOM.95 (other, VH dAb) VH: EVQLLESGGGLVQPGGSLRLSCAASGFTFREYDMLWVRQAPGKGLEWVSTIVGDGNGTYYADSVKGRFTISRDNSKNTLYLQMNSLRAEDTAVYYCAKQDRQFDYWGQGTLVTVSS"
14,binds,"DOM-15 (other, VH dAb) VH: EVQLLESGGGLVQPGGSLRLSCAASGFTFEEYVMSWVRQAPGKGLEWVSTISPIGLTTYYADSVKGRFTISRDNSKNTLYLQMNSLRAEDTAVYYCAEFPLIILPDFDYWGQGTLVTVSS"
15,binds,"DOM.97 (other, VH dAb) VH: EVQLLESGGGLVQPGGSLRLSCAASGFTFEEYGMSWVRQAPGKGLEWVSTISPIGVTTYYADSVKGRFTISRDNSKNTLYLQMNSLRAEDTAVYYCAKNAYDRKSNFDYWGQGTLVTVSS"
16,binds,"DOM.98 (other, VH dAb) VH: EVQLLESGGGLVQPGGSLRLSCAASGFTFDRYVMVWVRQAPGKDLEWVSGITPSGRRTYYADSVKGRFTISRDNSKDTLYLQMNSLRAEDTAVYYCAKVLGRHFDPLLPSFDYWGQGTLVTVSS"
